From publication PMC6738654, “BZU2/ZmMUTE controls symmetrical division of guard mother cell and specifies neighbor cell fate in maize”

Molecular target: T1, BZU2/ZmMUTE-ΔC (Zea mays, UniProt K7V1X7 1-189)
T1 sequence: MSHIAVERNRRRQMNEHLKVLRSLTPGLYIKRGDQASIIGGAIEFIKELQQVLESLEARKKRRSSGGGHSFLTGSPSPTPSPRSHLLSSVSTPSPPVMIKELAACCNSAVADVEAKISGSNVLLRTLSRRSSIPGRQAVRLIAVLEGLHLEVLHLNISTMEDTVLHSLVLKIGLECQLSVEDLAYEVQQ
Assay: EMSA; cold probe competitor 2-, 5-, 10-fold; LightShift Chemiluminescent EMSA Kit (Thermo) per manufacturer; buffer, salt, pH and temperature not stated
Details: protein: recombinant; chain copies: 2; label: 5' biotin (cold probe unlabeled); blunt

B1: P1 (PAN1 promoter E-box -27) (dsDNA)
DNA 1: GAATGAGGGGCACCTGGAGAGCACAT
DNA 2: ATGTGCTCTCCAGGTGCCCCTCATTC
binding result: binds

B2: P2 (PAN2 promoter E-boxes -187, -200) (dsDNA)
DNA 1: CAGCCACAACAGGTGTCCCTTTCAAGTGATCTCTGCA
DNA 2: TGCAGAGATCACTTGAAAGGGACACCTGTTGTGGCTG
binding result: binds
